pKd: −log10 of the molar value.
Assays:
Assay in all cases: ITC
FEZ1_(178–188) (human) = target: FEZ1_(178–188) (human)
[1] = target: FEZ1_(92–198 182EA) (human) (UniProt Q99689)
FEZ1_(92–198) (human) = FEZ1_(92–198) (human) (UniProt Q99689)

With “Disulfide-crosslinked CA (A14C/E45C) hexamer (complex)” the pKd (FEZ1_(178–188) (human)) was 6.74, the stoichiometry N (CA hexamer to FEZ1 (178–188)) (FEZ1_(178–188) (human)) was 1 and the stoichiometry N (CA hexamer to FEZ1) [1] was 1.6. For the same substance, the pKd (FEZ1_(92–198) (human)) was 6.52 and the stoichiometry N (CA hexamer to FEZ1) (FEZ1_(92–198) (human)) was 1.3.
